Where “and” joins values, the source holds several entries; their conditions need not be identical. Equal values may be shown once.
Tests used:
[1] = molecular target: T1, F protein of RSV A/Long MARM B10 (respiratory syncytial virus, strain …, UniProt P12568 26-574); experiment: IFA on MARM-infected HEp-2 cells
T1 construct: whole, on cells

[2] = molecular target: T2, F protein of RSV A/Long MARM B13 (respiratory syncytial virus, strain …, UniProt P12568 26-574); experiment: IFA on MARM-infected HEp-2 cells
T2 construct: whole, on cells

[3] = molecular target: T3, F protein of RSV A/Long MARM B8 (respiratory syncytial virus, strain …, UniProt P12568 26-574); experiment: IFA on MARM-infected HEp-2 cells
T3 construct: whole, on cells

[4] = molecular target: T4, F protein of RSV A/Long MARM B2 (respiratory syncytial virus, strain …, UniProt P12568 26-574); experiment: IFA on MARM-infected HEp-2 cells
T4 construct: whole, on cells

[5] = molecular target: T5, F protein of RSV A/Long MARM B7 (respiratory syncytial virus, strain …, UniProt P12568 26-574); experiment: IFA on MARM-infected HEp-2 cells
T5 construct: whole, on cells

[6] = molecular target: T6, F protein of RSV A/Long MARM B4 (respiratory syncytial virus, strain …, UniProt P12568 26-574); experiment: IFA on MARM-infected HEp-2 cells
T6 construct: whole, on cells

[7] = molecular target: T7, F protein of RSV A/Long MARM B1 (respiratory syncytial virus, strain …, UniProt P12568 26-574); experiment: IFA on MARM-infected HEp-2 cells
T7 construct: whole, on cells

[8] = molecular target: T8, F protein of RSV A/Long MARM B15 (respiratory syncytial virus, strain …, UniProt P12568 26-574); experiment: IFA on MARM-infected HEp-2 cells
T8 construct: whole, on cells

[9] = molecular target: T9, F protein of RSV A/Long MARM B6 (respiratory syncytial virus, strain …, UniProt P12568 26-574); experiment: IFA on MARM-infected HEp-2 cells
T9 construct: whole, on cells

[10] = molecular target: T10, F protein of RSV A/Long MARM B3 (respiratory syncytial virus, strain …, UniProt P12568 26-574); experiment: IFA on MARM-infected HEp-2 cells
T10 construct: whole, on cells

[11] = molecular target: T11, F protein of RSV A/Long MARM B14 (respiratory syncytial virus, strain …, UniProt P12568 26-574); experiment: IFA on MARM-infected HEp-2 cells
T11 construct: whole, on cells

[12] = molecular target: Bac-F (UniProt P03420 26-524); experiment: BIAcore, Mab vs Bac-F, 1:1
[13] = molecular target: T12, F protein of wild type RSV A/Long (respiratory syncytial virus, strain …, UniProt P12568 26-574); experiment: cell-based or functional assay
[14] = molecular target: F protein (RSV F glycoprotein immobilised on the BIAcore sensor chip) (respiratory syncytial virus (RSV), UniProt P03420 26-524); experiment: BIAcore, immobilised F protein
[15] = molecular target: T12, F protein of wild type RSV A/Long; experiment: cell-based or functional assay; remark: listed apart in the source
[16] = molecular target: T13, F protein of RSV A/Long MARM #6 (selected with A4B4) (respiratory syncytial virus, strain …, UniProt P12568 26-574); experiment: IFA on MARM-infected HEp-2 cells
T13 construct: whole, on cells

[17] = molecular target: T14, F protein of RSV A/Long MARM #10 (selected with A4B4) (respiratory syncytial virus, strain …, UniProt P12568 26-574); experiment: IFA on MARM-infected HEp-2 cells
T14 construct: whole, on cells

[18] = molecular target: T15, F protein of RSV A/Long MARM #9 (selected with A4B4) (respiratory syncytial virus, strain …, UniProt P12568 26-574); experiment: IFA on MARM-infected HEp-2 cells
T15 construct: whole, on cells

[19] = molecular target: T16, F protein of RSV A/Long MARM #11 (selected with A4B4) (respiratory syncytial virus, strain …, UniProt P12568 26-574); experiment: IFA on MARM-infected HEp-2 cells
T16 construct: whole, on cells

[20] = molecular target: T17, F protein of RSV A/Long MARM B9 (respiratory syncytial virus, strain …, UniProt P12568 26-574); experiment: IFA on MARM-infected HEp-2 cells
T17 construct: whole, on cells

[21] = molecular target: T18, F protein of MARM #13 (selected with A4B4 from MARM B9) (respiratory syncytial virus, strain …, UniProt P12568 26-574); experiment: IFA on MARM-infected HEp-2 cells
T18 construct: whole, on cells

| Binder | Kd [12] | koff [12] | kon [12] | number in parentheses after KD (fold vs SYNAGIS) [12] | EC50, RSV (Long) microneutralization [13] | koff [14] | kon [14] | Mean IC50 (Control), RSV microneutralization [15] | Mean IC50 (Curve), RSV microneutralization [15] | binding result [16] | binding result [17] | binding result [18] | binding result [19] | binding result [21] | Fold Difference (Control IC50) [15] | Fold Difference (Curve IC50) [15] | other results |
| --- | --- | --- | --- | --- | --- | --- | --- | --- | --- | --- | --- | --- | --- | --- | --- | --- | --- |
| SYNAGIS® (antibody, V domains shown, also called SYNAGIS ®/SYNAGIS ® (HC/LC)) VH: QVTLRESGPALVKPTQTLTLTCTFSGFSLSTSGMSVGWIRQPPGKALEWLADIWWDDKKDYNPSLKSRLTISKDTSKNQVVLKVTNMDPADTATYYCARSMITNWYFDVWGAGTTVTVSS VL: DIQMTQSPSTLSASVGDRVTITCKCQLSVGYMHWYQQKPGKAPKLLIYDTSKLASGVPSRFSGSGSGTEFTLTISSLQPDDFATYYCFQGSGYPFTFGGGTKLEIK | 3.9 nM | 0.000515 s⁻¹ | 132000 M⁻¹ s⁻¹ | 1 fold | 3.57 nM | 0.000764 s⁻¹ and 0.000738 s⁻¹ and 0.000702 s⁻¹ | 204000 M⁻¹ s⁻¹ and 189000 M⁻¹ s⁻¹ and 218000 M⁻¹ s⁻¹ | 0.535 µg/mL | 0.453 µg/mL | no binding (tested: 250 ng/ml) | no binding (tested: 250 ng/ml) | no binding (tested: 250 ng/ml) | no binding (tested: 250 ng/ml) | no binding (tested: 250 ng/ml) |  |  | binding result [1]: no binding (tested: 250 ng/ml); binding result [2]: no binding (tested: 250 ng/ml); binding result [3]: no binding (tested: 250 ng/ml); binding result [4]: no binding (tested: 250 ng/ml); binding result [5]: no binding (tested: 250 ng/ml); binding result [6]: no binding (tested: 250 ng/ml); binding result [7]: no binding (tested: 250 ng/ml); binding result [8]: no binding (tested: 250 ng/ml); binding result [9]: no binding (tested: 250 ng/ml); binding result [10]: no binding (tested: 250 ng/ml); binding result [11]: no binding (tested: 250 ng/ml); binding result [20]: no binding (tested: 250 ng/ml) |
| P12f4 (Fab) (Fab, V domains shown) VH: QVTLRESGPALVKPTQTLTLTCTFSGFSLSTPGMSVGWIRQPPGKALEWLADIWWDGKKHYNPSLKDRLTISKDTSKNQVVLKVTNMDPADTATYYCARDMIFNFYFDVWGQGTTVTVSS VL: DIQMTQSPSTLSASVGDRVTITCSLSSRVGYMHWYQQKPGKAPKLLIYDTRGLPSGVPSRFSGSGSGTEFTLTISSLQPDDFATYYCFQGSGYPFTFGGGTKVEIK |  |  |  |  | 0.7 nM | 0.000299 s⁻¹ | 527000 M⁻¹ s⁻¹ | 0.0351 µg/mL | 0.0464 µg/mL |  |  |  |  |  | 15 fold | 10 fold |  |
| P11d4 (Fab) (Fab, V domains shown) VH: QVTLRESGPALVKPTQTLTLTCTFSGFSLSTPGMSVGWIRQPPGKALEWLADIWWDGKKHYNPSLKDRLTISKDTSKNQVVLKVTNMDPADTATYYCARDMIFNWYFDVWGQGTTVTVSS VL: DIQMTQSPSTLSASVGDRVTITCSPSSRVGYMHWYQQKPGKAPKLLIYDTMRLASGVPSRFSGSGSGTEFTLTISSLQPDDFATYYCFQGSGYPFTFGGGTKVEIK |  |  |  |  | > 20 nM | 0.000717 s⁻¹ | 570000 M⁻¹ s⁻¹ and 572000 M⁻¹ s⁻¹ | > 1 µg/mL | > 1 µg/mL |  |  |  |  |  |  |  |  |
| A13c4 (Fab) (Fab, V domains shown) VH: QVTLRESGPALVKPTQTLTLTCTFSGFSLSTAGMSVGWIRQPPGKALEWLADIWWDGKKSYNPSLKDRLTISKDTSKNQVVLKVTNMDPADTATYYCARDMIFNFYFDVWGQGTTVTVSS VL: DIQMTQSPSTLSASVGDRVTITCSLSSRVGYMHWYQQKPGKAPKLLIYDTMYQSSGVPSRFSGSGSGTEFTLTISSLQPDDFATYYCFQGSGYPFTFGGGTKVEIK |  |  |  |  | 0.52 nM | 0.00028 s⁻¹ | 781000 M⁻¹ s⁻¹ and 735000 M⁻¹ s⁻¹ | 0.0258 µg/mL | 0.0264 µg/mL |  |  |  |  |  | 21 fold | 17 fold |  |
| A12a6 (Fab) (Fab, V domains shown) VH: QVTLRESGPALVKPTQTLTLTCTFSGFSLSTAGMSVGWIRQPPGKALEWLADIWWDGKKDYNPSLKDRLTISKDTSKNQVVLKVTNMDPADTATYYCARDMIFNFYFDVWGQGTTVTVSS VL: DIQMTQSPSTLSASVGDRVTITCSASSRVGYMHWYQQKPGKAPKLLIYDTFKLSSGVPSRFSGSGSGTEFTLTISSLQPDDFATYYCFQGSGYPFTFGGGTKVEIK |  |  |  |  | 0.62 nM | 0.00023 s⁻¹ | 743000 M⁻¹ s⁻¹ | 0.031 µg/mL | 0.0287 µg/mL |  |  |  |  |  | 17 fold | 16 fold |  |
| A4B4 (monoclonal antibody) (antibody, V domains shown, also called A4B4/A4B4 (HC/LC)) VH: QVTLRESGPALVKPTQTLTLTCTFSGFSLSTAGMSVGWIRQPPGKALEWLADIWWDDKKHYNPSLKDRLTISKDTSKNQVVLKVTNMDPADTATYYCARDMIFNFYFDVWGQGTTVTVSS VL: DIQMTQSPSTLSASVGDRVTITCSASSRVGYMHWYQQKPGKAPKLLIYDTFFLDSGVPSRFSGSGSGTEFTLTISSLQPDDFATYYCFQGSGYPFTFGGGTKLEIK | 0.02 nM | 1.06e-05 s⁻¹ | 434000 M⁻¹ s⁻¹ | 195 fold |  |  |  | 0.0154 µg/mL | 0.0171 µg/mL | no binding (tested: 250 ng/ml) | no binding (tested: 250 ng/ml) | no binding (tested: 250 ng/ml) | no binding (tested: 250 ng/ml) | no binding (tested: 250 ng/ml) | 35 fold | 27 fold |  |

— patent publication US20020177126A1 (published 2002)
